Reference: paper PMC10179326

Target: alpha-thrombin (Homo sapiens, UniProt P00734;P00734 328-363;364-622)
Assay: MST; potassium phosphate pH 7.5, 20 nM aptamer; EMSA: 10 mM sodium cacodylate pH 7.2, 100 mM KCl in D2O, incubation 25 C, 12% native gel in 1x TBE + 10 mM KCl at 10 C; MST: 10 mM Tris-HCl, 100 mM potassium ph

GGTTGGTGTGGTTGG (structured_DNA) [TBA (15-mer thrombin binding aptamer)]
Kd: 19.5 nM

B1: 2GLE (analogue 2 - GLE tripeptide conjugate) (structured_DNA)
DNA: GGGTTGGGTGTGGGTTGGG
modifications: alpha-deoxyguanosine at positions 1,12; tripeptide GLE conjugated at T4 (N3 position, equivalent of T3 in TBA)
Kd: 2.7 nM
